This data set deals with GST-NSD2-SET (Homo sapiens, UniProt O96028 941-1240). Kind of data set: EMSA. (In general: Mobility shift assays separate free from complexed probe on a gel.)
Sequence of GST-NSD2-SET (O96028 941-1240): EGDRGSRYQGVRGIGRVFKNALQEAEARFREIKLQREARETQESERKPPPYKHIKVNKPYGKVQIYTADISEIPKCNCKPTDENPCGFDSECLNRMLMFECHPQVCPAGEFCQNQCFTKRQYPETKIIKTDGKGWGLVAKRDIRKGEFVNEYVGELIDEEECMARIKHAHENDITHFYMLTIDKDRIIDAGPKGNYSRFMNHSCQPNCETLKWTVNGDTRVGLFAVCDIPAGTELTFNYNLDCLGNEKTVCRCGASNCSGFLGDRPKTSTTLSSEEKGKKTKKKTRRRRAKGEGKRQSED

B1: 41-bp dsDNA (dsDNA)
DNA 1: CTCTCTTTGAGGACACCAACCTGGCGGCCATCCACGCCAAG
DNA 2: CTTGGCGTGGATGGCCGCCAGGTTGGTGTCCTCAAAGAGAG
Turning to B1, the binding result was “binds”.
